The record followed here is patent US11452764B2, “Inhibiting FAK-AKT interaction to inhibit metastasis” (Board of Trustees of Michigan State University, priority 2017, dated 2022).

Assay [1] deals with Akt1 (Homo sapiens, UniProt P31749). The experiment in a line: GST-FAK truncation/mutant fusion protein pull-down of Akt1 (cell lysate or purified Akt1). The assay is classed as binding. On the set-up: endogenous in cells; host or cells: Caco-2 or SW620 cell lysate. Conditions: for Akt1 pulled down by GST-FAK truncations: GST pull-down, N=4, p<0.05; for Akt1 pull-down by mutated GST-FAK-NT1 versus wild-type NT1: SW620 lysate, densitometry normalized to wild-type NT1, n=8-19, p<0.05. The protocol:
Glutathione-Sepharose 4B beads (15 μl) were washed twice in ice-cold PBS and resuspended in 400 μl PBS. Bacterial lysate containing GST-Akt1, GST-FAK-NT1 (truncations), or GST proteins (gift of Dr. J. Chen) were then added in excess and incubated with the beads for 1 h. Glutathione-Sepharose 4B beads coupled to GST-Akt1, GST-FAK (truncations), or GST were then washed twice with PBS by centrifuge for 5 min at 500 g and incubated with nontransfected or transfected Caco-2 cell lysates (600-800 μg protein) overnight at 4° C. Transfected Caco-2 cells received plasmids encoding HA-WT-FAK or HA-FRNK. Nontransfected and transfected Caco-2 cell lysates were prepared in cell lysis buffer lysis buffer [50 mM Tris (pH 7.4), 150 mM NaCl, 1% Triton X-100, 1% sodium deoxycholate, 0.1% SDS, 1 mM EDTA, 1 mM phenylmethylsulfonyl fluoride, 1 mM Na3VO4, 50 mM NaF, 10 mM sodium pyrophosphate, […] (pH 7.4)]. Following incubation, beads were washed twice with lysis buffer without SDS and protease inhibitors. Proteins were eluted with Laemmli SDS sample dilution buffer, separated by 10% SDS-PAGE, and immunoblotted with GST, Akt1 (Cell Signaling Technology, Danvers, Mass.), or HA monoclonal antibodies (Covance, Chantilly, Va.).
(§1) In some cases Glutathione-Sepharose-4B beads (30 μl) (GE Healthcare Life Science, Pittsburgh, Pa.) were conjugated with GST (expressed protein from a 250 μl bacterial pellet per 30 μl of beads) or recombinant GST-tagged (expressed protein from a 3 ml bacterial pellet per 30 μl of beads) (24) and incubated with lysate from 2×10^7 Caco-2 or SW620 cells (1500 μg protein) or purified Akt1 (0.35 μg) (Origene, Rockville, Md.) overnight at 4° C. Similar incubation for two hours at 4° C. was performed with FAK-derived peptides (Peptide 2.0, Chantilly, Va.) reconstituted in sterile water and mixed with conjugated beads and cell lysate for a final concentration of […] before overnight Akt1 incubation. Bound protein was eluted for western analysis (24).
Protein concentrations were determined by bicinchoninic acid (BCA) protein assay (Pierce, Rockford, Ill.). Eluate from GST pull-downs or collected cell lysates was resolved by SDS-PAGE and transferred to Hybond P 0.45 PVDF blotting membrane (Amersham Life Science, Arlington Heights, Ill.). Membranes were blocked for 1 hour at room temperature with Odyssey TBS Blocking Buffer (Amersham Life Science, Arlington Heights, Ill.) and blotted overnight at 4° C. with antibodies against FAK (#3285), Phospho-FAK Tyr397 (#3283), Akt1 (#2967), Phospho-Akt1 Ser473 (#9271), GSK-3β (#9315), Phospho-GSK-3β Ser9 (#9315), or the GST tag (#2624) (CST, Beverly, Mass.). Membranes were visualized by the infrared fluorescent IRDye system (LI-COR Biosciences, Lincoln, Nebr.) and analyzed on an Odyssey scanner (LI-COR Biosciences, Lincoln, Nebr.) within the linear range. The doublet produced by the Akt1 antibody is consistent with results with this antibody (Ko et al., Elife: 5 (2016); Wu et al. Cell Discov 3: 16054 (2017)) and other (Datta et al. Cell 91: 231-41 (1997)) anti-Akt antibodies. Results were normalized to the appropriate GST tag, GAPDH, or total protein (for phosphorylated proteins) and relative to associated ambient controls unless stated otherwise.
Because the NT1 region of FAK is still quite large, we further truncated FAK-NT1 in an attempt to specify the region responsible for Akt1 binding. Five truncations were generated: NT1 (residues 1-126), NT1-1 (residues 1-60), NT1-2 (residues 61-126), […] (residues 61-93), and NT1-2-2 (residues 94-126) (FIG. 4A).
Tests involved use of 0.3 μg of purified Akt1 in pull-down assays to approximate the Akt1 in 1,500 μg of whole cell lysate, the lysate from 1×10^7 SW620 cells previously used in similar pull-down assays. This amount (0.3 μg of purified Akt1) was selected from Western blots comparing band intensity of 0.001-0.05 μg/lane of purified Akt1 against the band intensity of 40 or 80 μg/lane of cell lysate (not shown). […]

For assay [2], the system named is FAK-Tyr-397 phosphorylation. The experiment in a line: FAK-Y397 western blotting in suspended SW620 cells at ambient or 15 mmHg increased pressure (ZINC compounds). As to conditions: for Pressure stimulation of FAK-pTyr397 / Basal FAK-pTyr397: concentrations studied: ZINC31501681 1 pM-300 μM, ZINC58264388 1 nM-100 nM, ZINC40099027 10 pM-10 nM, ZINC25613745 1 nM. The assay is classed as cell-based, human. The text has this: Extracellular pressure was increased by 15 mmHg over ambient pressure using a temperature and pressure-controlled box as described by Basson et al. (J Cell Biochem, 78: 47-61 (2000)).
Cells were maintained at ambient or increased pressure in bacteriologic plastic dishes pacificated with heat-inactivated bovine serum albumin to prevent adhesion and avoid adhesion-associated background FAK activation. Cells were lysed in lysis buffer, resolved by 10% SDS-PAGE, transferred to nitrocellulose and blotted with antibody to Tyr-397-phosphorylated FAK (rabbit monoclonal ab81298, Abcam, San Francisco, Calif., USA) and anti-rabbit 680 (LI-COR Inc. Lincoln, Nebr., USA), before quantitation using Kodak Scientific Imaging Systems 1D, V.3.5.4 (Zeng et al., Oncotarget, 8 98051-98067 (2017)). Total FAK (Anti-FAK, clone 4.47 Merck, Darmstadt, Germany with secondary anti-mouse 800, LI-COR Inc. Lincoln, Nebr., USA) served as a loading control. FAK and Tyr-397-phosphorylated FAK western blots yielded doublets similar to those previously observed by others (McConnell et al. Mol Cancer 10: 75 (2011); Aflaki et al. Cell Mol Life Sci, 68: 3933-3947 (2011)); Das et al. Cancer Res, 72: 6217-6226 (2012); Ammoun et al. Oncogene, 31: 1710-1722 (2012)). Both bands were quantitated together.
Four structurally similar molecules to the FAK-derived sequence LAHPP (SEQ ID NO:25) (Table 2) were evaluated for their ability to prevent FAK activation by 15 mmHg increased extracellular pressure in human SW620 colon cancer cells. […] The structures of these compounds are shown below (and in FIG. 17).
(In western blotting, separated proteins are transferred to a membrane and probed.)

Assay [3] deals with T1, FAK-Akt1 interaction (Homo sapiens, UniProt P31749).
T1 construct: endogenous in cells; host or cells: Akt1 from Caco-2/SW620 cell lysate; GST-FAK bait expressed in E. coli BL21 (pGEX-4T1)
In words: Interference of FAK-derived peptides with GST-FAK / GST-FAK-NT1 pull-down of Akt1. The assay is classed as binding. As to conditions: for Akt1 pulldown by full length GST-FAK in presence of interfering 7 amino acid peptide: bait human wild type GST-FAK, peptides at 160 μM, vs. vehicle, n=12-14. The protocol:
as §1
To minimize the effect of non-specific binding to GST, a larger FAK-NT1 peptide (relative to GST) was used as bait and the effects of interference by NT1-2-2 FAK truncated peptides were assessed.
A full length GST-FAK was used as bait to further validate the ability of the interfering peptides to block Akt1 interaction with the entire FAK molecule. Because the seven-amino acid sequence from the short helix (LAHPPEE, SEQ ID NO:1) seemed sufficient for Akt1 binding (e.g., as shown in FIG. 6E), the focus was placed on this seven amino acid sequence and mutants thereof. […] Neither a scrambled version of the short helix (HPELAPE, SEQ ID NO:23) nor a peptide derived from the β-strand secondary structure C-terminal adjacent to the short helix (WKYELRI) interfered with pulldown.

Setting [4] is: SW620, 15 mmHg increased pressure.

“Also recorded” adds a separate entry of the source. Where no end group is shown, it is not given here.

Sequence of Akt1 (P31749 whole entry, the tested form may be a part): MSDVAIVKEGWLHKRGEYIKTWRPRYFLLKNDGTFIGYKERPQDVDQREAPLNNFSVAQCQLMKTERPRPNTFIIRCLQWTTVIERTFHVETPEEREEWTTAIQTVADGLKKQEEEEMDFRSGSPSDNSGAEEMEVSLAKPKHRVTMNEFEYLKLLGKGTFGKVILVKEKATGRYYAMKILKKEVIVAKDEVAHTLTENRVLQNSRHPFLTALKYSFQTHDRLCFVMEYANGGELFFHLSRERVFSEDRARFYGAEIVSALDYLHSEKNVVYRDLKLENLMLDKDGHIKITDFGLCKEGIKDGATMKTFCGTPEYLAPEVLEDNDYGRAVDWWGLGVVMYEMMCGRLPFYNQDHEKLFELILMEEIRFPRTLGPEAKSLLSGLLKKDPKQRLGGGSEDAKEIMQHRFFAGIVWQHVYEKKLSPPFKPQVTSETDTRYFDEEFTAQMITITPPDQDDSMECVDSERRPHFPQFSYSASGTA
T1 sequence (P31749 whole entry): as the sequence (P31749 whole entry, the tested form may be a part) above

As for “NT1-2-1: recombinant GST-FAK truncated peptide, residues 61-93 (ATDVRGIIQKIVDSHKVKNVACYGFRLSHLRSE; also: recombinant GST fusion (GST tag); listed as Homo sapiens)”, the “Akt1 pulled down by GST-FAK truncations” value in assay [1] is “significantly smaller amount of Akt1”. On to `Cc1ccccc1[C@@H]1CCCN1C(=O)C[C@H](NC(N)=O)c1cccs1` [ZINC58264388], for which, in assay [2] (setting [4]), the “Concentrations at which there was no further increase of FAK-pTyr397 by pressure” value is reported as “(10-100 nM)” and the “Pressure stimulation of FAK-pTyr397” value is recorded as “prevented a further pressure-induced increase in FAK-Tyr-397 phosphorylation”. Moreover, in assay [2] (SW620, ambient pressure), the “Concentrations at which basal FAK-pTyr397 was increased” value is on record as “(10-100 nM)” and the “Basal FAK-pTyr397” value is “increased basal FAK-Tyr-397 phosphorylation”. `O=C(N[C@@H](CC(=O)N1CCC[C@H]1c1nnc2ccccn12)c1ccccc1)c1ccccc1` [ZINC31501681]: the “Pressure stimulation of FAK-pTyr397” value in assay [2] (setting [4]) was “prevented a further pressure-induced increase in FAK-Tyr-397 phosphorylation”. Further, the “Basal FAK-pTyr397” value in assay [2] (SW620, ambient pressure) is listed as “increased basal FAK-Tyr-397 phosphorylation”. Moreover, in assay [2] (suspended SW620, 1-100 pM, 30 minutes, vs 0.1% DMSO, five experiments, p≤0.05), the “Phosphorylation of FAK-Tyr-397 at ambient pressure (pFAKY397/FAK)” value was “enhances the phosphorylation of FAK-Tyr-397”. For the molecule “LAHPSEE [mutant (P117S) version of the seven amino acid FAK peptide]”, in assay [3], the “Akt1 pulldown by full length GST-FAK in presence of interfering 7 amino acid peptide” value (shortened to “Akt1 pulldown by full length GST-FAK”) is reported as “reduced Akt1 pulldown”. Consider “NT1-2-2: recombinant GST-FAK truncated peptide, residues 94-126 (SEQ ID NO:2) (EVHWVHLDMGVSSVREKYELAHPPEEWKYELRI; also: GST fusion (recombinant))”, for which the “Akt1 pulled down by GST-FAK truncations” value in assay [1] is listed as “significantly more Akt1”. Further, the “Akt1 pull-down by GST-NT1-2-2 and its truncations versus GST control” value in assay [1] (n=6, p<0.05 vs. GST) is reported as “pulled down much more”. With “NT1-1: recombinant GST-FAK truncated peptide, residues 1-60 (MAAAYLDPNLNHTPNSSTKTHLGTGMERSPGAMERVLKVFHYFESNSEPTTWASIIRHGD; also: recombinant GST fusion (GST tag); listed as Homo sapiens)”, in assay [1], the “Akt1 pulled down by GST-FAK truncations” value is recorded as “significantly smaller amount of Akt1”. With “FAK(P117S): GST-FAK-NT1 with P117S mutation (LAHPSEE)”, the “Akt1 pull-down by mutated GST-FAK-NT1 versus wild-type NT1” value in assay [1] is listed as “lowered Akt1 pull-down”. Turning to “WKYELRI [β-strand control peptide, C-terminal adjacent to the short helix, reference compound]”, in assay [3], the “Akt1 pulldown by full length GST-FAK” value was “No such effect”. For “EVHWVHLDMGVSSVREKYELAHPPEEWKYELRI (listed as Homo sapiens) [Pep-FAK-NT1-2-2, wild-type 33 amino acid FAK peptide, residues 94-126]”, the “Akt1 pulled down by GST-FAK-NT1 in presence of interfering 33 amino acid peptide” value in assay [3] (bait GST-FAK-NT1, vs. vehicle (water), n=4) was “reduced binding between GST-FAK-NT1 and Akt1”. For `COc1ccc([C@@H]2CCCN2C(=O)Nc2cc(C(F)(F)F)ccc2N2CCOCC2)cc1` [ZINC40099027], in assay [2] (setting [4]), the “Pressure stimulation of FAK-pTyr397” value is reported as “prevented a further pressure-induced increase in FAK-Tyr-397 phosphorylation”. The “Basal FAK-pTyr397” value in assay [2] (SW620, ambient pressure) is “increased basal FAK-Tyr-397 phosphorylation”. Turning to “AAHCGEE [triple mutant L113A, P116C, P117G version of the FAK peptide]”, the “Akt1 pulldown by full length GST-FAK” value in assay [3] was “reduced Akt1 pulldown”.

Consider “FAK(L113A/P116C/P117G): GST-FAK-NT1 triple mutant (AAHCGEE)”, for which the “Akt1 pull-down by mutated GST-FAK-NT1 versus wild-type NT1” value in assay [1] is reported as “increased Akt1 pull-down”. Consider `C=C(Cl)/C(=C\C)[C@H](CC(=O)N1CCC[C@H]1c1ccc(OC)c(OC)c1)NC(N)=O` [ZINC25613745], for which the “Pressure stimulation of FAK-pTyr397” value in assay [2] (setting [4]) was “affected neither basal nor pressure-stimulated FAK-Tyr-397 phosphorylation; also recorded: Maintained”. Also, the “Basal FAK-pTyr397” value in assay [2] (SW620, ambient pressure) is “affected neither basal nor pressure-stimulated FAK-Tyr-397 phosphorylation; also recorded: No change”.

“LAHPPEE (listed as Homo sapiens) [wild-type seven amino acid short helix peptide, FAK residues 113-119]”: the “Akt1 pulldown by full length GST-FAK” value in assay [3] is on record as “reduced Akt1 pulldown”.

For “HPELAPE [scrambled short helix control peptide, reference compound]”, the “Akt1 pulldown by full length GST-FAK” value in assay [3] is “No such effect”.
